Source: publication PMC6487837

Assay: confocal microscopy, plasma membrane localisation, HT1080 and HL-1 cells
Details: glycan lost; control: wild-type DSC2-eYFP

localisation_or_trafficking, no change:
Desmocollin-2 (DSC2): p.N166Q, Desmocollin-2 (DSC2): p.N392Q, Desmocollin-2 (DSC2): p.N546Q, Desmocollin-2 (DSC2): p.N629Q
